Assay: yeast display, Sf9 membrane polyspecificity reagent, FACS + sequencing; frameworks hold sequencing errors
How it was run: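 Sorting gates, low and high (top ~1%), were placed on anti-HA fluorescence to track expression and on streptavidin fluorescence to track reagent binding. A clone's polyreactivity label is taken from the gate it came out of. The reagent was 10% biotinylated, detergent-solubilized Sf9 membrane, applied for 1 hour at 4 °C to galactose-induced yeast display cells.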

Sequence | polyreactivity (PSR sort gate)
QVQLVESGGGLVQAGGSLRLSCAASGSTLYTYAMGWYRQAPGKERELVADISTGGSTYYADSVKGRFTISRDNAKNTVYLQMNSLKPEDTAVYYCAAESWFDPVDYWGQGTQVTVSS | low polyreactivity
QVQLVESGGGLVQAGGSLRLSCAASGRTFSRYAMGWYRQAPGKERELVAAISNSGASTYYADSVKGRFTISRDNAKNTVYLQMNSLKPEDTAVYYCAAERYRLSYQYQEYYYWGQGTQVTVSS | high polyreactivity
HVQLVESGGGLVQAGGSLRLSCAASGSIFGHYAMGWYRQATGKERELVAAISSGGSTNYADSVKGRFTISRDNAKNTVYLQMNSLIPEDTAVYYCAPTSWWPPGYDYWGQGTQVTVSS | high polyreactivity
QDQLVESAGGLVQAGGSLRLSCAASGRTFRAYAMGWYRQAPGKAMELVAAISRNGGTTYYADSVKGRFTMSRDNAKNTVYLQMNSLKPEDTAVSYCNARAGTKTGLKSDYWGQGTQVTVSS | high polyreactivity
QVQLVESGGGLVQAGGTLRLSCGASGGTFYLYTMGWYRPAPGKERELVAAISRGGSTNYADSVKGRFTISRDNAKNTVYLLMNSLIPEDTAVFYCAAVRSTGFRYYYADEYDYWGQGTQVTVSS | low polyreactivity
QVQLVESGGRLVQAGGSLRLSCAASGSTFHDYAMGWYTPAPGKERELVAAIYNSGGSTYYADSVKGRFSISLDNAQNTVYLQMNRLKPEDSAVYYWAADVSWYWYYEYWGQGTQVTLSS | low polyreactivity
QVQLEESGGGLVQAGGSLRLSCAASGSIFRYNAMGWYRQAPGKERELVAAITSGDSTYYADSVKGRFTISRDNAKNTVYLQMNSLKPEDTAVYYCAADLRYIYWSYYYWGQGTQVTVSS | low polyreactivity
QVQLVESGGGLDQAGGSLRLSCAASGGTFSNYAMGWYRQATGKERELVAAISESGGSTYYADSVKGRFTISRDNAKNTVYLQMNSLKPEDTAVYYCAVGTRFYVPRRFDYWGQGSQVTVSS | high polyreactivity
QVQLVESGGGLVQAGGSLRLSCAASGQIFVRNAMGWYRQAPGKERELVARISSGGSTNYADSVKGRFTISRDNAKNTVYLQMISLKPEDTAVYYCAARVYKGWPTHYDYWGQGTQVTVSS | high polyreactivity
QVQLVESGGGLVQAGGSLRLSCAASGRIFRYYAMGCYRQAPGKERELVAAITRGGSTNYADSVKGRFTISRDNAKNTVYLQMNSLKPEDTAVYYCAAAYRGRYKYYYWGQGSQVTVSS | high polyreactivity
QVQLVESGGGLVQAGGSLRLSCAASGFNFDYYAMGWYRPAPGKVRELVAAITSRGGSTYYADSVKGRFTISRDNAKTTVYLQMNILKPEDTAVYYCSALRRSAEYNYWGQGTQVTVSS | high polyreactivity
QVQLVESGGGLVQAGGSLRLSCAASGRTFSVYTMGWYRQAPGKERELVASINWSGGRTYYADSVKGRFTISRDNAKNTVYLQMNSLKPEDTAVYYCAATGWRTLYDYWGQGTQVTVSS | high polyreactivity
QVQLVESGGGLVQAGGSLRLSCAASGRTFNIYAMGWYRQAPGKERELVAAITWRSGSTYYADSVKGRFTISRDNAKNTVYLQMNSLKPEDTAVYYCAAEQWSSVPEFDYWGQGSQVTVSS | high polyreactivity
QVQLVESGGGLVQAGGSLRLSCAASGSIFYYNAMGWYRQAPGKERELVAAISWGDGITYYADSVKGRFTISRDNAKNTVYLQMNSLKPEDTAVYYCAVDYYYLPYEYWGQGTQVTVSS | high polyreactivity
QVQLVESGGGLVQAGGSLRLSCAASGLIFIFNTMGWYRQAPGKERELVAAISWSGTSTYYADSVKGRFTISRDNANMTVYLLMNSLKPVDTAVYFCNDDLYWFRGFDYWGQGTQVTVSS | high polyreactivity
QVQLVESGGGLVQAGGSLRLSCAASGSTFGFYAMGWYRQAPGKERELVAAISGRGGSTYYADSVKGRFTISRDNAKNTVYLQMNSLKPEDTAVYYCAAKYYGEMYYWGQGTQVTVSS | low polyreactivity
QVQLVESGGGLVQAGGSLRLSCAASGFTFYDNAMGWYRQAPGKERELVAAISWSGGSTYADSVKGRFTISRDNAKNTVYVQMNSLKPEDTAVYYCNADAWLASGYRYDYWGQGTQVTVSS | low polyreactivity
QVQLVESGGGLVQAGGSLRLSCAASGRTFSAYAMGWYRQAPGKEMELVARITSVDSTNYADSVKGRFTISRDNAKNTVYLQMNSLKPEDTAVYYCNATFGYPFVDYDDYWGQGTQVTVSS | low polyreactivity
QVQLVESGGGLVQAGGSLRLSCAASGLTFGGYTMGWYRQAPGKERELVAAITSGGSTYYADSVKGRFTISRDNAKNTVYLQMNSLKPEDTAVYYCAARVRGWPVSKFGYWGQGTQVTVSS | high polyreactivity
QVQLQESGDGLVQAVGSLRLSCAASGYSSGYYYMGWYRQAPGKERELVAGIDAFGISTNYADCVKGRFTISRDNAKNTVYLQMTSLKPEDTAVYYCAARPDGDRLFSYWGQGTQVTVSI | low polyreactivity
QDQLVESGGGLVQAGGSLRLSCAASGRILRRNVMGWYRQAPGKESELVATITNSGGRTYYADSVKGRFTISRDNEKNTVYLLMNSLQPEDTAVYYCAKYGYGYTGYGYWGQGTQVTVSS | high polyreactivity
QVQLVESGGGLVEAGGSLRLSGAASGSIFRYYSMGWYRQAPGKERELVAAITYSGGTTYYADSVKGRFTISRDNAKNTVYLQMNSLKPEDTAVYYCAATFQANYFSGYYTVYLSDYRGQGTQVTVSS | low polyreactivity
QVQLVESGGGLVQAGGSLRLSCAASGSIFRRYAMGWYRQAPGKERELVATITSSVCRTYYADSVKARFTISRDTAKNTVYLQMNSLKPEETAVYFCAVYVGLWGAGGKGDYWGQGTQVTVSS | low polyreactivity
QVQLVESGGGLVQAGGSLRLSCAASGSIFTYYVMGWYRQAPGKERELVAAITRSGGRTYYADSVKGRFTISRDNAKNTVYLQMNSLKPEDTAVYYCAARKYTGSGSRYYYWGQGTQVTVSS | high polyreactivity
QVQLVESGGGLVQEGGSLRLSCAASGFTFNNYAMGWYRQAPGKERELVAAISSVGRTYYAYSVKGRFTISRDNAKNTVYLQMISLKPEDTAVYYCNRRWYTHWGQGTQVTVSS | high polyreactivity
QVQLVESGGGLVQAGGSLRLTCAASGSTFWSYGMGWYRPAPGKERELVAAITRGGSTYYADSVKGRFTISRDNAKNTVYLQMNSLIPEDTAVYYCAAGISVRWSPSYYYWGQGTQVTVSS | high polyreactivity
QVQLVESGGGLVQAGGSLRLSCASSGSIFDVNAMGWYRPAPGKERELVAAISQRGTRTYYADSVKGSFTISRDNAKNTVYLQMNSLKPEDTAVYYCNRGGWRQYDSWGQGSQVTVSS | high polyreactivity
QVQLVESGGGLVQAGGSLRLSCAASGFIFYYNTMGWYRQAPGKERELVASITWSGDTTYYADSVKGRFTISRDNAKNTVYLQMNSLKPEDTAVYYCAAVHYYPYRRYDYWGQGTQVTVSS | low polyreactivity
QVQLVESGGGLVQAGGSLRLSCAASGYPFGKYAMGWYRQAPGKERELVASIRSGGSTNYADSVKGRFTISRDNAKNTVYVQMNCLKPEDTAVYYCNTRYRYQYGYDYWWQGTQVTVSS | high polyreactivity
QVHLVESGGGLVQAGGSLRLSCAASGRTLYYYTMGWYRQAPGKERDLVAAIRWSTGSTYYADSVKGRFTISRDNAKNTVYLQMNSLKPEDTAVYYCNASRYQWAQSTEYDYWGQGTQVTVSS | high polyreactivity

— the nanobody polyreactivity screen of Harvey et al. (2022)
